target: EPHB2 (UniProt P29323); assay: phosphorylation enrichment, bacterial display (enrichment ratio); higher = better substrate or ligand; peptides without Tyr show the background
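Note: 11-residue human phosphosite peptides and single-mutation variants displayed on the E. coli surface, counted by deep sequencing, each peptide's frequency after selection divided by its frequency in the unselected input library; frequency after pTyr selection over input frequency; kinase dosed for 20-30% of maximal phosphorylation in three min.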

Chain of EPHB2 (P29323 whole entry, looked up): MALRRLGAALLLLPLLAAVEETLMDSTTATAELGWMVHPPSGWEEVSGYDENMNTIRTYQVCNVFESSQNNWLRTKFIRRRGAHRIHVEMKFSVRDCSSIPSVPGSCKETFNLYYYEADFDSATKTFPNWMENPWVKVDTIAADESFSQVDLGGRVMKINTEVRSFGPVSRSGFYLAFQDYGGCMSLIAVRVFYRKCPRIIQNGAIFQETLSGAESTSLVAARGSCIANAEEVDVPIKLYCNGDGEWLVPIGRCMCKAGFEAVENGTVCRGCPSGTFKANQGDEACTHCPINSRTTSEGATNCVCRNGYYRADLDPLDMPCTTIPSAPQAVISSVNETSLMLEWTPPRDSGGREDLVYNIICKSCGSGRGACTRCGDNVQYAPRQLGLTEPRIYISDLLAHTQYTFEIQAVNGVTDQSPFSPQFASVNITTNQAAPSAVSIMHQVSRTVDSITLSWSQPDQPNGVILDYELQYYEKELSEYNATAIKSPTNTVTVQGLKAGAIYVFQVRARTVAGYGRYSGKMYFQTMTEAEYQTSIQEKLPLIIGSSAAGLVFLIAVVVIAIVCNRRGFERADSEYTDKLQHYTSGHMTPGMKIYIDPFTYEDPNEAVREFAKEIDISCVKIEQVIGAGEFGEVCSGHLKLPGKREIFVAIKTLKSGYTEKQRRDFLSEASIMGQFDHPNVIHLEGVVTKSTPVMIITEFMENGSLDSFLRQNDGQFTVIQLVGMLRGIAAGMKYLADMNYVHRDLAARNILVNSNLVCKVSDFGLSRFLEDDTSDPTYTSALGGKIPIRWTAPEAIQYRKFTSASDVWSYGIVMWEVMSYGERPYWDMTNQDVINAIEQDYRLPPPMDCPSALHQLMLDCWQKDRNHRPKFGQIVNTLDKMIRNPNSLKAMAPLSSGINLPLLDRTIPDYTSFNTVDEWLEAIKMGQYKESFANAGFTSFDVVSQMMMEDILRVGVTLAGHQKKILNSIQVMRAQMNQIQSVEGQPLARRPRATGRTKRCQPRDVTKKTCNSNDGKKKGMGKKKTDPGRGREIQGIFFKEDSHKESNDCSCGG

First: VVAHQYSFAPD [TNS3_Y601]
Second: GVSYIYTIDGS [DCX_Y105_R102S]
The phosphorylation enrichment of the first is lower: 0.353 for the first, 0.498 for the second.

Going from IDPYTYTPFGS [CYP3A4_Y432_I431T] to IDPFTYTPFGS [CYP3A4_Y432_I431T_YF], the phosphorylation enrichment rises from 0.6 to 0.705.

Compared with FDKEFYSVHNK [MET_Y1235_YF], QTSTDYDIRFY [CSNK2A1_Y131_L128S] is higher in phosphorylation enrichment: 0.638 for the first, 1.36 for the second.

Compared with AVLSLYASDRT [ACTA1_Y145_G148D], QMVGMYASSFM [AVPR2_Y124_YF] is higher in phosphorylation enrichment: 0.664 for the first, 0.914 for the second.

Going from EEVGIYRMSGV [BCR_Y1089_V1091M] to DNPAKYFILEN [DPP10_Y512_S517N], the phosphorylation enrichment falls from 0.502 to 0.456.

Compared with RDLTDYLMKIL [ACTA1_Y190], LIFVSYDDWDF [GRIN2A_Y281_S278F_YF] is higher in phosphorylation enrichment: 0.529 for the first, 2.89 for the second.

Compared with PPPPAYDDVAQ [TNK2_Y635], KDHPDYKFQLR [SOX10_Y171_P175L_YF] is lower in phosphorylation enrichment: 0.669 for the first, 0.492 for the second.

First: SSMSDYNPLEK [MYOC_Y479_I477S]
Second: SIKDKYVMALY [KCNH2_Y611_T613M]
The phosphorylation enrichment of the first is higher: 0.515 for the first, 0.481 for the second.

Going from EWRSPYGLTPR [GRIN3B_Y601] to QEKKGYFEDRR [GLUL_Y336], the phosphorylation enrichment rises from 0.473 to 0.577.

Going from YRVAGYETQGG [TIA1_Y383] to HNQDGYSFPSR [LDLR_Y845_YF], the phosphorylation enrichment rises from 0.338 to 0.939.

First: LTSVKYLLSAT [GSDMC_Y26_P23S]
Second: ITQRAYRRHLL [SCN1A_Y1926_I1922T]
The phosphorylation enrichment of the first is higher: 0.566 for the first, 0.417 for the second.

First: IVKAFYVHARA [AIPL1_Y268_R270H_YF]
Second: RKPDIYERLAS [MCM4_Y459]
The phosphorylation enrichment of the first is lower: 0.621 for the first, 0.903 for the second.

Going from ENQEIYRKAFD [KPNA1_Y493_Q494R] to HHTNEYEYDEL [TGM1_Y134_D132N], the phosphorylation enrichment falls from 0.798 to 0.585.

Compared with NQILPYIEELV [PPP2R1B_Y341_K343E], LKRIAYFLCLL [LGI1_Y21] is lower in phosphorylation enrichment: 0.644 for the first, 0.536 for the second.

First: KIKGRYEKCEP [KRT26_Y119_W118R]
Second: GAAMLYFPSVS [GPR143_Y177_YF]
The phosphorylation enrichment of the first is higher: 0.526 for the first, 0.423 for the second.

Going from SVTCTYSPGLN [TP53_Y126_A129G] to RPFSPYIIRGM [LRP5_Y1531_R1529S_YF], the phosphorylation enrichment falls from 0.686 to 0.535.

EDDIIYTQDFM [STK11_Y362_T367M] gave a phosphorylation enrichment of 0.746.

tested on: AncSZ; assay: as above

First: VVAHQYSFAPD [TNS3_Y601]
Second: GVSYIYTIDGS [DCX_Y105_R102S]
The phosphorylation enrichment of the first is lower: 0.684 for the first, 1.11 for the second.

Compared with IDPYTYTPFGS [CYP3A4_Y432_I431T], IDPFTYTPFGS [CYP3A4_Y432_I431T_YF] is lower in phosphorylation enrichment: 1.3 for the first, 0.724 for the second.

Going from FDKEFYSVHNK [MET_Y1235_YF] to QTSTDYDIRFY [CSNK2A1_Y131_L128S], the phosphorylation enrichment rises from 0.806 to 1.46.

Going from AVLSLYASDRT [ACTA1_Y145_G148D] to QMVGMYASSFM [AVPR2_Y124_YF], the phosphorylation enrichment rises from 0.967 to 0.981.

Compared with EEVGIYRMSGV [BCR_Y1089_V1091M], DNPAKYFILEN [DPP10_Y512_S517N] is higher in phosphorylation enrichment: 0.925 for the first, 1.03 for the second.

Compared with RDLTDYLMKIL [ACTA1_Y190], LIFVSYDDWDF [GRIN2A_Y281_S278F_YF] is higher in phosphorylation enrichment: 1.09 for the first, 4.68 for the second.

Compared with PPPPAYDDVAQ [TNK2_Y635], KDHPDYKFQLR [SOX10_Y171_P175L_YF] is lower in phosphorylation enrichment: 1.16 for the first, 0.798 for the second.

First: SSMSDYNPLEK [MYOC_Y479_I477S]
Second: SIKDKYVMALY [KCNH2_Y611_T613M]
The phosphorylation enrichment of the first is higher: 0.87 for the first, 0.639 for the second.

First: EWRSPYGLTPR [GRIN3B_Y601]
Second: QEKKGYFEDRR [GLUL_Y336]
The phosphorylation enrichment of the first is lower: 0.569 for the first, 0.907 for the second.

First: YRVAGYETQGG [TIA1_Y383]
Second: HNQDGYSFPSR [LDLR_Y845_YF]
The phosphorylation enrichment of the first is lower: 0.436 for the first, 1.94 for the second.

Going from LTSVKYLLSAT [GSDMC_Y26_P23S] to ITQRAYRRHLL [SCN1A_Y1926_I1922T], the phosphorylation enrichment falls from 0.703 to 0.63.

Compared with IVKAFYVHARA [AIPL1_Y268_R270H_YF], RKPDIYERLAS [MCM4_Y459] is lower in phosphorylation enrichment: 1.04 for the first, 0.846 for the second.

First: ENQEIYRKAFD [KPNA1_Y493_Q494R]
Second: HHTNEYEYDEL [TGM1_Y134_D132N]
The phosphorylation enrichment of the first is lower: 0.883 for the first, 1.32 for the second.

Compared with NQILPYIEELV [PPP2R1B_Y341_K343E], LKRIAYFLCLL [LGI1_Y21] is lower in phosphorylation enrichment: 1.37 for the first, 1.05 for the second.

Going from KIKGRYEKCEP [KRT26_Y119_W118R] to GAAMLYFPSVS [GPR143_Y177_YF], the phosphorylation enrichment falls from 0.808 to 0.613.

Going from SVTCTYSPGLN [TP53_Y126_A129G] to RPFSPYIIRGM [LRP5_Y1531_R1529S_YF], the phosphorylation enrichment falls from 1.42 to 1.29.

EDDIIYTQDFM [STK11_Y362_T367M] gave a phosphorylation enrichment of 1.49.

Reference: the supplement of paper PMC10065799, “High-throughput profiling of sequence recognition by tyrosine kinases and SH2 domains using bacterial peptide display” (eLife, 2023)
